First the molecules themselves.
T1: human GIP receptor (human) (UniProt P48546)
T1 sequence (looked up): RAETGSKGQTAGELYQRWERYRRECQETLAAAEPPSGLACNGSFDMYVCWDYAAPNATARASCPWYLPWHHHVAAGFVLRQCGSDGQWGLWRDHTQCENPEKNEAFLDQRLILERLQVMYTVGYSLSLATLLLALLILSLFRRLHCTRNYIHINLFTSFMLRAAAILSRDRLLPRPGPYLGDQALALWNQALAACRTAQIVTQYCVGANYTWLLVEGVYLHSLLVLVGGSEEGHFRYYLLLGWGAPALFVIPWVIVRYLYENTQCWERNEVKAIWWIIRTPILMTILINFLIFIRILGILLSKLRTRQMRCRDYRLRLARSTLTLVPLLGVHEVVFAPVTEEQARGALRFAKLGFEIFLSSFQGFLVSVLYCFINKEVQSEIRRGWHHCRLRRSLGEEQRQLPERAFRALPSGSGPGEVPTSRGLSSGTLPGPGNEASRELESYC

B1: Example 994 (peptide)
chain: YXQGTFTSDXSXXLDXKAQXXFIEXLIAGGPSSGAPPPSGSEE
modifications: Lys acylated with (γGlu)2-C18 diacid; non-natural residues; C-amide; synthetic construct; SITE 2: note = 2-Aminoisobutyric Acid; SITE 10: note = 3-(4-Pyridyl)-L-alanine; SITE 12: note = L-ornithine; SITE 13: note = alpha-methyl-leucine; SITE 16: note = L-ornithine; SITE 17: note = Lysine is chemically modified through conjugation of the epsilon-amino group of the Lys
B2: Example 986 (peptide)
chain: YXQGTFTSDXSQXLDXKAQXAFIEYLIAGGPSSGEPPPSGTEEE
modifications: synthetic construct; SITE 2: note = 2-Aminoisobutyric Acid; SITE 10: note = 3-(4-Pyridyl)-L-alanine; SITE 13: note = alpha-methyl-leucine; SITE 16: note = L-ornithine; SITE 17: note = Lysine is chemically modified through conjugation of the epsilon-amino group of the Lysine side chain with (gamma-Gl)
B3: Example 987 (peptide)
chain: YXQGTFTSDXSXXLDKKAQXAFIEXLIEXGPSSGEPPPSGS
modifications: Aib, 4Pal, Orn, αMeL, Me4Pal, acylated K, C-terminal amide; synthetic construct; SITE 2: note = 2-Aminoisobutyric Acid; SITE 10: note = 3-(4-Pyridyl)-L-alanine; SITE 12: note = L-ornithine; SITE 13: note = alpha-methyl-leucine; SITE 17: note = Lysine is chemically modified through conjugation of the epsilon-amino group of the Lysine side chain with (2-[2-(2-
B4: Example 991 (peptide)
chain: B3 chain with K16X
modifications: Aib, 4Pal, Orn, Me4Pal, lipidated Lys, C-terminal amide; synthetic construct; SITE 2: note = 2-Aminoisobutyric Acid; SITE 10: note = 3-(4-Pyridyl)-L-alanine; SITE 12: note = L-ornithine; SITE 13: note = alpha-methyl-leucine; SITE 16: note = L-ornithine; SITE 17: note = Lysine is chemically modified through conjugation of the epsilon-amino group of the Lys
B5: Example 989 (peptide)
chain: B3 chain
modifications: Lys acylated (γ-Glu)2-C18 diacid; non-natural residues; C-terminal amide; synthetic construct; SITE 2: note = 2-Aminoisobutyric Acid; SITE 10: note = 3-(4-Pyridyl)-L-alanine; SITE 12: note = L-ornithine; SITE 13: note = alpha-methyl-leucine; SITE 17: note = Lysine is chemically modified through conjugation of the epsilon-amino group of the Lysine side chain with (gamma-Gl)
B6: Example 984 (peptide)
chain: YXQGTFTSDXSXXLDXKAQXAFIEYLIAGGPSSGEPPPSGTE
modifications: Aib, 4Pal, Orn, αMeL, Me4Pal; (γGlu)2-C18 diacid on Lys; amide; synthetic construct; SITE 2: note = 2-Aminoisobutyric Acid; SITE 10: note = 3-(4-Pyridyl)-L-alanine; SITE 12: note = L-ornithine; SITE 13: note = alpha-methyl-leucine; SITE 16: note = L-ornithine; SITE 17: note = Lysine is chemically modified through conjugation of the epsilon-amino group of the Lys
B7: Example 988 (peptide)
chain: B6 chain with X16K, Y25X, A28E, G29X, T41S
modifications: non-natural residues; Lys acylated AEEA-(γGlu)2-C18 diacid; C-terminal amide; synthetic construct; SITE 2: note = 2-Aminoisobutyric Acid; SITE 10: note = 3-(4-Pyridyl)-L-alanine; SITE 12: note = L-ornithine; SITE 13: note = alpha-methyl-leucine; SITE 17: note = Lysine is chemically modified through conjugation of the epsilon-amino group of the Lysine side chain with (2-[2-(2-
B8: Example 990 (peptide)
chain: B6 chain with X16K, Y25X, A28E, G29X, T41S
modifications: Aib, 4Pal, Me4Pal, Orn, alpha-methyl-Leu, lipidated Lys, amide; synthetic construct; SITE 2: note = 2-Aminoisobutyric Acid; SITE 10: note = 3-(4-Pyridyl)-L-alanine; SITE 12: note = L-ornithine; SITE 13: note = alpha-methyl-leucine; SITE 17: note = Lysine is chemically modified through conjugation of the epsilon-amino group of the Lysine side chain with (gamma-Gl)
B9: Example 96 (peptide)
chain: YXQGTFTSDFSXXLDKKAQXQFIEYLLAGGPSSGAPPPEGS
modifications: synthetic construct; SITE 2: note = 2-Aminoisobutyric Acid; SITE 12: note = L-ornithine; SITE 13: note = alpha-methyl-leucine; SITE 17: note = Lysine is chemically modified through conjugation of the epsilon-amino group of the Lysine side chain with (2-[2-(2-Amino-ethoxy)-ethoxy]-acetyl)-(gamma-Glu)
B10: Example 998 (peptide)
chain: B1 chain with X12Q, X21Q, I27L
modifications: non-natural residues, acylated Lys, C-terminal amide; synthetic construct; SITE 2: note = 2-Aminoisobutyric Acid; SITE 10: note = 3-(4-Pyridyl)-L-alanine; SITE 13: note = alpha-methyl-leucine; SITE 16: note = L-ornithine; SITE 17: note = Lysine is chemically modified through conjugation of the epsilon-amino group of the Lysine side chain with (gamma-Gl)
B11: Example 999 (peptide)
chain: B1 chain with X12Q, X21E, I27L
modifications: Aib, 4Pal, αMeL, Orn, Me4Pal, αMeY; γGlu2-C18 diacid Lys; amide; synthetic construct; SITE 2: note = 2-Aminoisobutyric Acid; SITE 10: note = 3-(4-Pyridyl)-L-alanine; SITE 13: note = alpha-methyl-leucine; SITE 16: note = L-ornithine; SITE 17: note = Lysine is chemically modified through conjugation of the epsilon-amino group of the Lysine side chain with (gamma-Gl)

Numbering of substitutions follows the chain as printed.

Chain of hGLP-1R (P43220 24-463): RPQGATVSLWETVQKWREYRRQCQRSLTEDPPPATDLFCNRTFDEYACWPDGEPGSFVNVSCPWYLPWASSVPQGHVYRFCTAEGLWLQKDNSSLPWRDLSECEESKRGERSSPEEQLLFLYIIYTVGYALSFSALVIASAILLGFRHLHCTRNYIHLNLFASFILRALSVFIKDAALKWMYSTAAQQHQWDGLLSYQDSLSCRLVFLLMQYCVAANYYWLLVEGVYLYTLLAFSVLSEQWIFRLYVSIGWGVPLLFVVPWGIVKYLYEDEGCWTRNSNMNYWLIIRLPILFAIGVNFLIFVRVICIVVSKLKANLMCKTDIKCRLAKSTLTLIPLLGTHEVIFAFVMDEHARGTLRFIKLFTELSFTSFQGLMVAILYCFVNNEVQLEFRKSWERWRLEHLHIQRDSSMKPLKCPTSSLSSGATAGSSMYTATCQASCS

The target of one experiment is human glucagon receptor (human) (UniProt P47871). The experiment in a line: cell-based or functional assay.
Chain of human glucagon receptor (human) (P47871 26-477): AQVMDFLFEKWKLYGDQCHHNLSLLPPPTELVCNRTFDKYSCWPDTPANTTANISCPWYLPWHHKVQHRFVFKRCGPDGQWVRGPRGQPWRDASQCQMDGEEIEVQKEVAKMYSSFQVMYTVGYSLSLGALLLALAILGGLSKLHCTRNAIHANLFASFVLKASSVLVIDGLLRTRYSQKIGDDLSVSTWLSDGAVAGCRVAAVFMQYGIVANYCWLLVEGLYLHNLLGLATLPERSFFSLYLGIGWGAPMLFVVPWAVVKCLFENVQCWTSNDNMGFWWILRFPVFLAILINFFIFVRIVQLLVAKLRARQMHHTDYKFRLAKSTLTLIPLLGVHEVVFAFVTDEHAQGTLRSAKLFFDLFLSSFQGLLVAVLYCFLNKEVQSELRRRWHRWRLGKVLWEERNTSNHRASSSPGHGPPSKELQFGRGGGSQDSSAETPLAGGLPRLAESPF
In turn, B1 showed a cAMP Rel EC50, nM (1% HSA) of 1050 nM.
B2 gave a Relative cAMP EC50 of 4.94 nM and a cAMP Rel EC50, nM (1% HSA) of 702 nM.
B3 showed a Relative cAMP EC50 of 3.62 nM and a cAMP Rel EC50, nM (1% HSA) of 267 nM.
Regarding B4, the Relative cAMP EC50 amounted to 3.03 nM and the cAMP Rel EC50, nM (1% HSA) turned out to be 405 nM.
The matching figures for B5: 2.27 nM and 247 nM.
The matching figures for B6: 4.5 nM and 409 nM.
The like results for B7 were, in that order, 2.52 nM and 320 nM.
The molecule B8 yielded a Relative cAMP EC50 of 2.47 nM and a cAMP Rel EC50, nM (1% HSA) of 276 nM.
For B9, the Relative cAMP EC50 amounted to 14.1 nM and the cAMP Rel EC50, nM (in the presence of 1% HSA) came to 2150 nM.
The molecule B10 came in with a cAMP Rel EC50, nM (1% HSA) of 794 nM.
B11 returned a cAMP Rel EC50, nM (1% HSA) of 2130 nM.

The next experiment addresses hGLP-1R (Homo sapiens, UniProt P43220). The experiment in a line: cell-based or functional assay.
Regarding B1, the cAMP Rel EC50, nM (1% HSA) was found to be 395 nM.
Regarding B2, the Relative cAMP EC50 amounted to 3.06 nM and the cAMP Rel EC50, nM (1% HSA) came out at 380 nM.
In turn, B3 displayed a Relative cAMP EC50 of 6.33 nM and a cAMP Rel EC50, nM (1% HSA) of 515 nM.
The matching figures for B4: 3.91 nM and 315 nM.
As for B5, the Relative cAMP EC50 stood at 3.92 nM and the cAMP Rel EC50, nM (1% HSA) stood at 402 nM.
The matching figures for B6: 2.07 nM and 160 nM.
The like results for B7 were, in that order, 9.5 nM and 743 nM.
The matching figures for B8: 5.78 nM and 557 nM.
Take B9: the Relative cAMP EC50 is 3.92 nM and the cAMP Rel EC50, nM (in the presence of 1% HSA) was 836 nM.
Molecule B10 had a cAMP Rel EC50, nM (1% HSA) of 1470 nM.
For B11, the cAMP Rel EC50, nM (1% HSA) stood at 3020 nM.

For another experiment, the target named is T1, human GIP receptor (human). The experiment in a line: cell-based or functional assay.
As for B1, the cAMP Rel EC50, nM (1% HSA) is 30.8 nM.
On to B2, for which the Relative cAMP EC50 was found to be 0.299 nM and the cAMP Rel EC50, nM (1% HSA) was found to be 31.3 nM.
The like results for B3 were, in that order, 0.194 nM and 11.7 nM.
The like results for B4 were, in that order, 0.119 nM and 14.8 nM.
The like results for B5 were, in that order, 0.103 nM and 8 nM.
Regarding B6, the Relative cAMP EC50 is 0.232 nM and the cAMP Rel EC50, nM (1% HSA) came to 23.5 nM.
B7 registered a Relative cAMP EC50 of 0.198 nM and a cAMP Rel EC50, nM (1% HSA) of 11.8 nM.
The matching figures for B8: 0.115 nM and 9.87 nM.
B9: the Relative cAMP EC50 came out at 0.456 nM and the cAMP Rel EC50, nM (in the presence of 1% HSA) worked out at 49.3 nM.
Molecule B10 had a cAMP Rel EC50, nM (1% HSA) of 6.78 nM.
The same measure, in the same setting: in the case of B11 it was 10.4 nM.

The values above are taken from patent publication US20240270821A1, “GIP/GLP1/GCG TRI-RECEPTOR AGONISTS AND USES THEREOF” (priority 2023, published 2024).
